Results as given in patent publication US20060257938A1, “Method of screening for drugs that block ligand binding to a lipid binding protein” (priority 2005, published 2006).
Substitutions are numbered along the chain they refer to. Numbers in names are those of the source.

B1: L2P16A3: FABP probe, substitutions M18I G31L A73G vs SEQ ID NO: 2 (protein, listed as Rattus norvegicus)
chain: AFDGTWKVDRNENYEKFIEKMGINVVKRKLLAHDNLKLTITQEGNKFTVKESSNFRNIDVVFELGVDFAYSLGDGTELTGTWTMEGNKLVGKFKRVDNGKELIAVREISGNELIQTYTYEGVEAKRIFKKE
modifications: PEPTIDE (1)...(131) wild-type rat intestinal fatty acid binding protein
B2: L2P12C5: FABP probe, substitutions M18I G31I F55M A73I vs SEQ ID NO: 2 (protein, listed as Rattus norvegicus)
chain: B1 chain with L31I, F55M, G73I
modifications: PEPTIDE (1)...(131) wild-type rat intestinal fatty acid binding protein
B3: L2P8A5: FABP probe, substitutions M18V G31A F55W A73W vs SEQ ID NO: 2 (protein, listed as Rattus norvegicus)
chain: B1 chain with I18V, L31A, F55W, G73W
modifications: PEPTIDE (1)...(131) wild-type rat intestinal fatty acid binding protein
B4: L2P17H10: FABP probe, substitutions M18G G31F A73L vs SEQ ID NO: 2 (protein, listed as Rattus norvegicus)
chain: B1 chain with I18G, L31F, G73L
modifications: PEPTIDE (1)...(131) wild-type rat intestinal fatty acid binding protein
B5: L2P8A6: FABP probe, substitutions M18I G31V F55V A73V vs SEQ ID NO: 2 (protein, listed as Rattus norvegicus)
chain: B1 chain with L31V, F55V, G73V
modifications: PEPTIDE (1)...(131) wild-type rat intestinal fatty acid binding protein
B6: L2P22G6: FABP probe, substitutions M18I G31Y A73G vs SEQ ID NO: 2 (protein, listed as Rattus norvegicus)
chain: B1 chain with L31Y
modifications: PEPTIDE (1)...(131) wild-type rat intestinal fatty acid binding protein
B7: L2P23G7: FABP probe, substitutions M18V G31F F55L vs SEQ ID NO: 2 (protein, listed as Rattus norvegicus)
chain: B1 chain with I18V, L31F, F55L, G73A
modifications: PEPTIDE (1)...(131) wild-type rat intestinal fatty acid binding protein
B8: L2P22E6: FABP probe, substitutions M18V G31A F55I A73W vs SEQ ID NO: 2 (protein, listed as Rattus norvegicus)
chain: B1 chain with I18V, L31A, F55I, G73W
modifications: PEPTIDE (1)...(131) wild-type rat intestinal fatty acid binding protein
B9: L2P7F4: FABP probe, substitutions M18V G31V A73I vs SEQ ID NO: 2 (protein, listed as Rattus norvegicus)
chain: B1 chain with I18V, L31V, G73I
modifications: PEPTIDE (1)...(131) wild-type rat intestinal fatty acid binding protein
B10: L2P18H12: FABP probe, substitutions M18I G31V A73G vs SEQ ID NO: 2 (protein, listed as Rattus norvegicus)
chain: B1 chain with L31V
modifications: PEPTIDE (1)...(131) wild-type rat intestinal fatty acid binding protein
B11: L2P21C1: FABP probe, substitutions M18I G31Y A73V vs SEQ ID NO: 2 (protein, listed as Rattus norvegicus)
chain: B1 chain with L31Y, G73V
modifications: PEPTIDE (1)...(131) wild-type rat intestinal fatty acid binding protein
B12: L2P23A4: FABP probe, substitutions M18V G31I F55L A73V vs SEQ ID NO: 2 (protein, listed as Rattus norvegicus)
chain: B1 chain with I18V, L31I, F55L, G73V
modifications: PEPTIDE (1)...(131) wild-type rat intestinal fatty acid binding protein
B13: L2P11B4: FABP probe, substitutions M18V G31A A73W vs SEQ ID NO: 2 (protein, listed as Rattus norvegicus)
chain: B1 chain with I18V, L31A, G73W
modifications: PEPTIDE (1)...(131) wild-type rat intestinal fatty acid binding protein
B14: L2P2E11: FABP probe, substitutions M18I G31F vs SEQ ID NO: 2 (protein, listed as Rattus norvegicus)
chain: B1 chain with L31F, G73A
modifications: PEPTIDE (1)...(131) wild-type rat intestinal fatty acid binding protein
B15: L2P21G3: FABP probe, substitutions M18I G31M F55M vs SEQ ID NO: 2 (protein, listed as Rattus norvegicus)
chain: B1 chain with L31M, F55M, G73A
modifications: PEPTIDE (1)...(131) wild-type rat intestinal fatty acid binding protein
B16: L1P14 D6: FABP probe, mutations 14M 72V 117W vs SEQ ID NO: 2 (protein, listed as Rattus norvegicus)
chain: B1 chain with Y14M, I18M, L31G, L72V, G73A, Y117W
modifications: PEPTIDE (1)...(131) wild-type rat intestinal fatty acid binding protein
B17: L1P12 E8: FABP probe, mutations 14L 38A 72G 117F 114E vs SEQ ID NO: 2 (protein, listed as Rattus norvegicus)
chain: B1 chain with Y14L, I18M, L31G, L38A, L72G, G73A, I114E, Y117F
modifications: PEPTIDE (1)...(131) wild-type rat intestinal fatty acid binding protein

Assay: Probe fluorescence ratio response to palmitoleic acid relative to ADIFAB2
Assay type: binding
Settings: Table 5
Procedure, shortened: (§1)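 Each fatty acid's response was expressed relative to ADIFAB2, the rI-FABP-L72A probe, as ΔR/ΔRreference. ΔR is the change in the background-corrected two-wavelength intensity ratio R=Fλ1/Fλ2 from its analyte-free baseline R0. Emission was read near about 420-480 nm for unbound and about 495-580 nm for FFA-bound probe.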

Molecule	ΔR/DRAΔ2 POA
B1	1.4
B2	1.9
B3	2.0
B4	1.2
B5	1.3
B6	2.6
B7	1.4
B8	1.6
B9	1.3
B10	2.1
B11	2.9
B12	2.8
B13	3.1
B14	2.6
B15	1.4

Assay: Probe fluorescence intensity change with UCB:BSA
Assay type: binding
Settings: 1:1 UCB:BSA, 440 nm

Molecule	ΔI/Io 1:1 UCB:BSA 440 nm
B16	−0.69
B17	−0.79

Same assay, conditions: 1:1 UCB:BSA, 500 nm

Molecule	ΔI/Io 1:1 UCB:BSA 500 nm
B16	−0.64
B17	−0.70

Same assay, conditions: 1:2 UCB:BSA, 440 nm

Molecule	ΔI/Io 1:2 UCB:BSA 440 nm
B16	−0.37
B17	−0.45

Same assay, conditions: 1:2 UCB:BSA, 500 nm

Molecule	ΔI/Io 1:2 UCB:BSA 500 nm
B16	−0.33
B17	−0.39

Assay: Probe fluorescence ratio response to linoleic acid relative to ADIFAB2
Assay type: binding
Settings: Table 5
Procedure, shortened: as §1

Molecule	ΔR/DRAΔ2 LA
B1	1.1
B2	1.5
B3	1.6
B4	1.5
B5	0.8
B6	2.6
B7	1.0
B8	1.3
B9	1.1
B10	1.7
B11	3.4
B12	3.1
B13	2.6
B14	2.5
B15	1.1

Assay: Probe fluorescence ratio response to stearic acid relative to ADIFAB2
Assay type: binding
Settings: Table 5
Procedure, shortened: as §1

Molecule	ΔR/DRAΔ2 SA
B1	0.3
B2	0.4
B3	0.4
B4	1.7
B5	0.2
B6	0.9
B7	0.4
B8	0.4
B9	0.3
B10	0.5
B11	1.6
B12	1.2
B13	0.7
B14	0.8
B15	0.3

Assay: Probe fluorescence ratio response to palmitic acid relative to ADIFAB2
Assay type: binding
Settings: Table 5
Procedure, shortened: as §1

Molecule	ΔR/DRAΔ2 PA
B1	1.1
B2	1.5
B3	1.5
B4	1.0
B5	1.0
B6	1.9
B7	1.0
B8	1.3
B9	1.3
B10	1.6
B11	2.0
B12	1.9
B13	2.2
B14	2.0
B15	1.1

Assay: Probe fluorescence ratio response to linolenic acid relative to ADIFAB2
Assay type: binding
Settings: Table 5
Procedure, shortened: as §1

Molecule	ΔR/DRAΔ2 LNA
B1	1.5
B2	1.7
B3	1.9
B4	1.2
B5	1.2
B6	2.7
B7	1.2
B8	1.6
B9	1.5
B10	1.9
B11	3.1
B12	2.6
B13	2.8
B14	2.8
B15	1.4

Assay: Probe fluorescence ratio response to arachidonic acid relative to ADIFAB2
Assay type: binding
Settings: Table 5; Arachidonic acid
Procedure, shortened: as §1

Molecule	ΔR/DRAΔ2 AA
B1	1.0
B2	1.3
B3	1.1
B4	1.8
B5	0.6
B6	1.8
B7	0.9
B8	1.0
B9	0.8
B10	1.3
B11	2.8
B12	2.8
B13	1.8
B14	1.9
B15	1.0

Assay: Probe fluorescence ratio response to oleic acid relative to ADIFAB2
Assay type: binding
Settings: Table 5
Procedure, shortened: as §1

Molecule	ΔR/DRAΔ2 OA
B1	0.6
B2	0.8
B3	0.9
B4	1.4
B5	0.4
B6	1.6
B7	0.6
B8	0.8
B9	0.6
B10	1.0
B11	2.7
B12	2.3
B13	1.9
B14	1.6
B15	0.6
